Legend:
Assay in all cases: cell-based or functional assay
[1] = target: HIV-1 Env of Q769.d22 (HIV-1)
[2] = target: HIV-1 Env of DU172.17 (HIV-1)
[3] = target: HIV-1 Env of TH976.17 (HIV-1)
[4] = target: HIV-1 Env of CAP210.E8 (HIV-1)
[5] = target: HIV-1 Env of ZM233.6 (HIV-1)
[6] = target: HIV-1 Env of Q23.17 (HIV-1)
[7] = target: HIV-1 Env of Q259.d2.17 (HIV-1)
[8] = target: HIV-1 Env of CAP256.SU (HIV-1)
[9] = target: HIV-1 Env of ZM109.4 (HIV-1)
[10] = target: HIV-1 Env of 3016.V5.c36 (HIV-1)
[11] = target: HIV-1 Env of KER2008.12 (HIV-1)
[12] = target: HIV-1 Env of AC10.29 (HIV-1)
[13] = target: HIV-1 Env of DU156.12 (HIV-1)
[14] = target: HIV-1 Env of REJO.67 (HIV-1)
[15] = target: HIV-1 Env of 6535.3 (HIV-1)
[16] = target: HIV-1 Env of QH0692.42 (HIV-1)
[17] = target: HIV-1 Env of CAP45.G3 (HIV-1)
[18] = target: HIV-1 Env of Q842.d12 (HIV-1)
[19] = target: HIV-1 Env of ZM197.7 (HIV-1)
[20] = target: HIV-1 Env of C1080.c3 (HIV-1)
[21] = target: HIV-1 Env of MB539.2B7 (HIV-1)
[22] = target: HIV-1 Env of ZM214.15 (HIV-1)
[23] = target: HIV-1 Env of DU422.01 (HIV-1)
[24] = target: HIV-1 Env of ZM249.1 (HIV-1)
[25] = target: HIV-1 Env of ZM53.12 (HIV-1)
[26] = target: HIV-1 Env of RHPA.7 (HIV-1)
[27] = target: HIV-1 Env of ZM135.10a (HIV-1)
[28] = target: HIV-1 Env of CAAN.A2 (HIV-1)
[29] = target: HIV-1 Env of UG037.8 (HIV-1)
[30] = target: HIV-1 Env of THRO.18 (HIV-1)
[31] = target: HIV-1 Env of PVO.04 (HIV-1)
[32] = target: HIV-1 Env of 96ZM651.02 (HIV-1)
[33] = target: HIV-1 Env of CAP256.PI (HIV-1)
[34] = target: HIV-1 Env of TRJO.58 (HIV-1)
[35] = target: HIV-1 Env of 6405.v4.c34 (HIV-1)
[36] = target: HIV-1 Env of BG505.w6m (HIV-1)
[37] = target: HIV-1 Env of RW020.2 (HIV-1)
[38] = target: HIV-1 Env of Q168.a2 (HIV-1)
[39] = target: HIV-1 Env of WITO.33 (HIV-1)
[40] = target: HIV-1 Env of TRO.11 (HIV-1)
[41] = target: HIV-1 Env of CM244.ec1 (HIV-1)
[42] = target: HIV-1 Env of MB201 (HIV-1)
[43] = target: HIV-1 Env of SC422.8 (HIV-1)
[44] = target: HIV-1 Env of CAP244.D3 (HIV-1)
[45] = target: HIV-1 Env of 0260.v5.c36 (HIV-1)
[46] = target: HIV-1 Env of CNE3 (HIV-1)
[47] = target: HIV-1 Env of KER2018.11 (HIV-1)
[48] = target: HIV-1 Env of Q461.e2 (HIV-1)

CAP256-VRC26.30 (antibody)
IC50 (neutralization, TZM-bl) [1]: > 50 µg/mL
IC50 (neutralization, TZM-bl) [2]: > 50 µg/mL
IC50 (neutralization, TZM-bl) [3]: > 50 µg/mL
IC50 (neutralization, TZM-bl) [4]: < 0.0006 µg/mL
IC50 (neutralization, TZM-bl) [5]: 0.188 µg/mL
IC50 (neutralization, TZM-bl) [6]: > 50 µg/mL
IC50 (neutralization, TZM-bl) [7]: 0.107 µg/mL
IC50 (neutralization, TZM-bl) [8]: < 0.0006 µg/mL
IC50 (neutralization, TZM-bl) [9]: > 50 µg/mL
IC50 (neutralization, TZM-bl) [10]: 1.05 µg/mL
IC50 (neutralization, TZM-bl) [11]: > 50 µg/mL
IC50 (neutralization, TZM-bl) [12]: > 50 µg/mL
IC50 (neutralization, TZM-bl) [13]: 0.848 µg/mL
IC50 (neutralization, TZM-bl) [14]: > 50 µg/mL
IC50 (neutralization, TZM-bl) [15]: > 50 µg/mL
IC50 (neutralization, TZM-bl) [16]: > 50 µg/mL
IC50 (neutralization, TZM-bl) [17]: 0.317 µg/mL
IC50 (neutralization, TZM-bl) [18]: > 50 µg/mL
IC50 (neutralization, TZM-bl) [19]: 1 µg/mL
IC50 (neutralization, TZM-bl) [20]: 0.073 µg/mL
IC50 (neutralization, TZM-bl) [21]: > 50 µg/mL
IC50 (neutralization, TZM-bl) [22]: > 50 µg/mL
IC50 (neutralization, TZM-bl) [23]: 0.4 µg/mL
IC50 (neutralization, TZM-bl) [24]: 0.762 µg/mL
IC50 (neutralization, TZM-bl) [25]: < 0.0006 µg/mL
IC50 (neutralization, TZM-bl) [26]: > 50 µg/mL
IC50 (neutralization, TZM-bl) [27]: > 50 µg/mL
IC50 (neutralization, TZM-bl) [28]: > 50 µg/mL
IC50 (neutralization, TZM-bl) [29]: > 50 µg/mL
IC50 (neutralization, TZM-bl) [30]: > 50 µg/mL
IC50 (neutralization, TZM-bl) [31]: 12.6 µg/mL
IC50 (neutralization, TZM-bl) [32]: 37.8 µg/mL
IC50 (neutralization, TZM-bl) [33]: > 50 µg/mL
IC50 (neutralization, TZM-bl) [34]: > 50 µg/mL
IC50 (neutralization, TZM-bl) [35]: > 50 µg/mL
IC50 (neutralization, TZM-bl) [36]: 9.04 µg/mL
IC50 (neutralization, TZM-bl) [37]: > 50 µg/mL
IC50 (neutralization, TZM-bl) [38]: 0.199 µg/mL
IC50 (neutralization, TZM-bl) [39]: > 50 µg/mL
IC50 (neutralization, TZM-bl) [40]: > 50 µg/mL
IC50 (neutralization, TZM-bl) [41]: > 50 µg/mL
IC50 (neutralization, TZM-bl) [42]: > 50 µg/mL
IC50 (neutralization, TZM-bl) [43]: > 50 µg/mL
IC50 (neutralization, TZM-bl) [44]: > 50 µg/mL
IC50 (neutralization, TZM-bl) [45]: > 50 µg/mL
IC50 (neutralization, TZM-bl) [46]: > 50 µg/mL
IC50 (neutralization, TZM-bl) [47]: < 0.0006 µg/mL
IC50 (neutralization, TZM-bl) [48]: > 50 µg/mL

CAP256-VRC26.31 (antibody)
IC50 (neutralization, TZM-bl) [1]: > 50 µg/mL
IC50 (neutralization, TZM-bl) [2]: > 50 µg/mL
IC50 (neutralization, TZM-bl) [3]: > 50 µg/mL
IC50 (neutralization, TZM-bl) [4]: 0.003 µg/mL
IC50 (neutralization, TZM-bl) [5]: 0.74 µg/mL
IC50 (neutralization, TZM-bl) [6]: > 50 µg/mL
IC50 (neutralization, TZM-bl) [7]: 0.262 µg/mL
IC50 (neutralization, TZM-bl) [8]: < 0.0006 µg/mL
IC50 (neutralization, TZM-bl) [9]: > 50 µg/mL
IC50 (neutralization, TZM-bl) [10]: > 50 µg/mL
IC50 (neutralization, TZM-bl) [11]: > 50 µg/mL
IC50 (neutralization, TZM-bl) [12]: > 50 µg/mL
IC50 (neutralization, TZM-bl) [13]: 4.46 µg/mL
IC50 (neutralization, TZM-bl) [14]: > 50 µg/mL
IC50 (neutralization, TZM-bl) [15]: > 50 µg/mL
IC50 (neutralization, TZM-bl) [16]: > 50 µg/mL
IC50 (neutralization, TZM-bl) [17]: > 50 µg/mL
IC50 (neutralization, TZM-bl) [18]: > 50 µg/mL
IC50 (neutralization, TZM-bl) [19]: 3.22 µg/mL
IC50 (neutralization, TZM-bl) [20]: 1.67 µg/mL
IC50 (neutralization, TZM-bl) [21]: > 50 µg/mL
IC50 (neutralization, TZM-bl) [22]: > 50 µg/mL
IC50 (neutralization, TZM-bl) [23]: 1.66 µg/mL
IC50 (neutralization, TZM-bl) [24]: > 50 µg/mL
IC50 (neutralization, TZM-bl) [25]: < 0.0006 µg/mL
IC50 (neutralization, TZM-bl) [26]: > 50 µg/mL
IC50 (neutralization, TZM-bl) [27]: > 50 µg/mL
IC50 (neutralization, TZM-bl) [28]: > 50 µg/mL
IC50 (neutralization, TZM-bl) [29]: > 50 µg/mL
IC50 (neutralization, TZM-bl) [30]: > 50 µg/mL
IC50 (neutralization, TZM-bl) [31]: > 50 µg/mL
IC50 (neutralization, TZM-bl) [32]: > 50 µg/mL
IC50 (neutralization, TZM-bl) [33]: > 50 µg/mL
IC50 (neutralization, TZM-bl) [34]: > 50 µg/mL
IC50 (neutralization, TZM-bl) [35]: > 50 µg/mL
IC50 (neutralization, TZM-bl) [36]: > 50 µg/mL
IC50 (neutralization, TZM-bl) [37]: > 50 µg/mL
IC50 (neutralization, TZM-bl) [38]: 4.16 µg/mL
IC50 (neutralization, TZM-bl) [39]: > 50 µg/mL
IC50 (neutralization, TZM-bl) [40]: > 50 µg/mL
IC50 (neutralization, TZM-bl) [41]: > 50 µg/mL
IC50 (neutralization, TZM-bl) [42]: > 50 µg/mL
IC50 (neutralization, TZM-bl) [43]: > 50 µg/mL
IC50 (neutralization, TZM-bl) [44]: > 50 µg/mL
IC50 (neutralization, TZM-bl) [45]: > 50 µg/mL
IC50 (neutralization, TZM-bl) [46]: > 50 µg/mL
IC50 (neutralization, TZM-bl) [47]: 0.002 µg/mL
IC50 (neutralization, TZM-bl) [48]: > 50 µg/mL

Source: patent US20200199204A1
